The results in this text go back to the nanobody polyreactivity screen of Harvey et al. (2022).

A short description of the series: yeast display, Sf9 membrane polyspecificity reagent, FACS + sequencing; frameworks hold sequencing errors. The gist of the method: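 After 36–48 hours of galactose induction, yeast (Saccharomyces cerevisiae BJ5465) displaying a synthetic nanobody library were stained at 4 °C for 1 hour with 10% biotinylated, detergent-solubilized Sf9 membrane reagent. Streptavidin microbeads enriched the stained cells before FACS sorting into low and high (top ~1%) gates on anti-HA and streptavidin fluorescence. Each clone's polyreactivity label reflects its gate of origin.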
Regarding “QVQLVESGGGLVQAGGSLRLSCAASGLTFVYNTMGWYRQAPGKERELVAAINWSGGRTYYADSVKGRFTISRDNAKNTVYLQMNSLKPEDTAVYYCAALYVPNTPTYKYDYWGQGTQVTVSS”, the “polyreactivity (PSR sort gate)” value is “low polyreactivity”.

“QVQLVESGGGLVQAGGSLRLSCAASGFIFSNNAMGWYRQAHGKERELVAAISKSGGGTSYADSVKGRFTISRDNAKNTVYFQMNSLKPEDSAVYYCAARFRQFRVDYWGQGTQVTVSS”: the “polyreactivity (PSR sort gate)” value is on record as “high polyreactivity”.

With “QVQLVESGGGVVQAGGSLRISCAASGRTFGVYAMGWYREAPGKERELVAAINRSGTRTYYADSVKGRFSISRDNPKNTVYLPMNSLKPEDTAVYYCAASWYPGSRNYDYWGQGTQVSVSS”, the “polyreactivity (PSR sort gate)” value is given as “high polyreactivity”.

Regarding “QVQLGESGGGLVQAGGSLRLSCAASGSTFNIYAMGWSRQSPGNERELVAAISSCGGRTYYADSVKGRFTISLDNAKNTVYLQMNSVKPEDTAVYYCAAVRSYYRGYDYWGQGTQVTVSS”, the “polyreactivity (PSR sort gate)” value is “high polyreactivity”.

With “QVQLVESGGGLVQAGGSLRLSCAAYGSNYSTYTMGWYRTAAGKERQLVAAITRSGGSTYYADSVKGRFTISRDNAKKTDYLQMNSLKPEDTAVFYCAARGQAYSGDRMYYWGLGTQVTVSS”, the “polyreactivity (PSR sort gate)” value is reported as “high polyreactivity”.

Regarding “QVQLGESGGGLVQAGGSLGLSCAASGGTLRVNTMGWYRQAPGKERELVAAISTRSGRTYYADSVKGRFTISRDNAKYTVYLQMNSLKPEDTAVYYCAATLYRRRSAFDGDWGQGTQVTVSS”, the “polyreactivity (PSR sort gate)” value is recorded as “high polyreactivity”.

Take “QVQLVESGGGLVLAGGSLRLSCAASGRPFYGNTMGWYRQAPGKERELVAAISYSGGTTSYADSVKGRFTISRDNAKNTVYLQMNSLKPEDTAVYYCAKRYSYWWTSGYDYWGQGTQVTVSS”: the “polyreactivity (PSR sort gate)” value is reported as “high polyreactivity”.

“QVQLVESGGGLVQAGGSLRLSCAASGRTFYSNAMGWYRQAAGKERELVAAISYNDGSTYYADSVKGRFTITRDNAKNTVYLQMNSLKPEDTAVYACNADVGAWAWYTRYDYWGQGTQVTVSS”: the “polyreactivity (PSR sort gate)” value is given as “low polyreactivity”.

“QDQLVESGGGLVQAGGSLRLSCAASGSIFRAYAMGRYRQPPGKERELVAAIIWTDGSTYYADSVKGRFTISRDNAKNTVYLQMNSLKPEDTAVYYCAKDSIARHNYWGQGTQVTLSS”: the “polyreactivity (PSR sort gate)” value is given as “low polyreactivity”.

For the sequence “QVQLVESGGGLVQAGGSLRLSCAASGSTFVSNAMGWDRQAPGQEREVVAALSSGGSPYYADSVKGRFTISRDNAKNTVYLQMNRLKPEDTAVYYCNKRRGRKWPGNYSVVKLLMGYWGQGTQVTVSS”, the “polyreactivity (PSR sort gate)” value is recorded as “low polyreactivity”.

Regarding “QVQLVESGGGLVQAGGSLRLSCAASGITFRVYAMGWYRPAPGKERELVAAITSSGGSTYYADSVKGRFTISRDYAKNTVYLQMNSLKPEDTAVYYCNKVTYGYAYWRYDGYDYWGQGTQVTVSS”, the “polyreactivity (PSR sort gate)” value is on record as “low polyreactivity”.

Take “QVKLVESGGGLVQAGGSIRLSCAASGSTFATYAMGCYRQAPGKERELVAAITSGGSTDYADSVKGRFTISRDNAKNTVYLQMNSQKPEDTAVYYCNATWVLLSYYYLFWCYDYWGQGTQVTVSS”: the “polyreactivity (PSR sort gate)” value is on record as “low polyreactivity”.

Regarding “QVQLVESGGGLVQAGGSLRLSCAASGSIIWRNAMGWYIQAPGKERELVAAISYSGGSTYYADSVKGRFTISRDNAKNTVYLQMNSLKPEDTAVYYCAARTSYYVYRHPSGRYDYWGQGSQVTVSS”, the “polyreactivity (PSR sort gate)” value is recorded as “low polyreactivity”.

In the case of “QVQLVESGGGLVQAGGSLRLSCAASGITFGGNAMGWYRQAPGKERELVAAISSSGGSTYYADSVKGRFTISRDNAKNTVYLQMNSLKPEDTAVYYCAARNRYPLRFYYWGQGTQVTVSS”, the “polyreactivity (PSR sort gate)” value is “high polyreactivity”.

“QVQLVESGGGLVHAGGILRLSCAASGRIFDYNVMGWYRQAPGKERELVADINGSGGGTNYADSVKGRFTISRDNAKNTVYLQMNSLKPEDTAVYYCAAEWYSYGARSSYGGSRNDYWGHGTQVTVSS”: the “polyreactivity (PSR sort gate)” value is “low polyreactivity”.

With “QVQLVESGGGLVQAGGSLRLSCAASGFTFNSYAMGWYRQAPGKERELVAAISSSGGRTYYADSVKGRFTISRDNAKNTVYLQMNSLKPEETAVYYCNAVLVSYYSVGYDYWGQGTQVTVSS”, the “polyreactivity (PSR sort gate)” value is “high polyreactivity”.

Take “QVQLVESGGGLVQAGGSLRLSCAASGSTSVYYAMGWYRQTPGKERELVAAITWDDGSTSYADSVKGRFTISRDNAKNTVYLQMNSLKPEDTAVYYCAKDYEYLGAFNYWGQGTQVTVSS”: the “polyreactivity (PSR sort gate)” value is “low polyreactivity”.

For “QVQLGESGGGLVQAGGSLRLSCAASGFIFCYYAMGWYRQAPVKERELVAAITSGGRTYYSESVKGRFTISLDNAKNTFYLQMNSMKPEDTSVYYCNVVLRSVVSGDYWGQGTQVTVSS”, the “polyreactivity (PSR sort gate)” value is “high polyreactivity”.

As for “QVQLVESGGGLVQAGGSLRLSCAASGSIFPVYAMGWYRQAPGKERELVAAISSRGGRTYYADSVKGRFTISRDNAKNTVYLQMNSLKPEDTAVYYCAAVPYPSYYDTGYDYWGQGTQVTVSS”, the “polyreactivity (PSR sort gate)” value is “low polyreactivity”.

Take “QVQLVESGGGLVQAGGSLRLSCAASGSIFYVYAMGWYRQAPGNERELVAVIRRGGSTKYADSVKGRFTISRDNAKNTVYLQMNSLKPEDTAVYYCNVVGYAYGWQYDYWGQGTQVTVSS”: the “polyreactivity (PSR sort gate)” value was “high polyreactivity”.

For “QVQLVESGGGLVQAGGSLRLSCAASGRILLTYAMGWYRQAPGKERELVAAISSDSRTYYADSVKGRFTISRDNAKNTVYLQMNSLIPEDTAVYYCVRRRYKYDYWGQGTQVTVSS”, the “polyreactivity (PSR sort gate)” value was “low polyreactivity”.

Take “QVQLVESGGGLVQAGGSLRLSCAASGFILGYYVMGWYRQAPGKERELVAAISSGGRTYYADSVKGRFTISRDNAKNTVYLQMNSLKPEDTAVYYCNAYAPRRRFDYWGQGTQVTVSS”: the “polyreactivity (PSR sort gate)” value is given as “high polyreactivity”.

Take “QVQLVESGGGLVQAGGSLRLSCAASGLIFSEYAMGWSRQAPGKETELVADIRSDGGSTYYADSVKGRFTISRDNAKNTVYLQINSLKPEDTAVYYCNAPYRRSAKFRRYGYDYWGQGTQVTVSS”: the “polyreactivity (PSR sort gate)” value is recorded as “high polyreactivity”.

On to “QVQLVESGGGLVQAGGSLRLSCAASGSTFGQYAMGWYRQAPGKERELVAAISTSGGSTYYADSVKGRFTISRDNAKNTVYLQMNSLKPEDTAVYYCAVDRLPSYPTGFDYWGQGTQVTVSS”, for which the “polyreactivity (PSR sort gate)” value is “high polyreactivity”.

With “QDQLVESGGGLVQAGGSLRLSCAASGRTFPWYAMGWYRPAPGKERELVAAISTGGSRTYYADSVKGRFTISRDNAKNTVYLQMNSLKPEDTAVYYCNARNTLRDYPYGYWGQGTQVTVSS”, the “polyreactivity (PSR sort gate)” value is listed as “high polyreactivity”.

On to “QVQLVESGGGLVQAGGSLRLSCAPSGFTFSQYAMGWYRQAPGKEREFVAAISRSGGSTYYADSVKGRFTISRDNAKNTVYLQMNSLKPEDTAVYYCAAGLVATFSRRGRASYRYNYWGHGTQVTVSS”, for which the “polyreactivity (PSR sort gate)” value was “high polyreactivity”.

“QVQLVESGGGLVQAGGSLRLSCAASGIILYRYAMGWYRQAPGKERELVAAISRRGGSTYYADSVKGRFTISRDNAKNTVYLQMNSLKPEDTAVYYCATRSTFYSRWGEVYTYYYWGQGTQVTVSS”: the “polyreactivity (PSR sort gate)” value is “high polyreactivity”.

Consider “QDQHVESGGGLVQAGGSLRLSCAASGLIFYYNMGWNRQAPRKERELVAAISSSGGSTSYADSVKGRFTISRDNAKNTVYLQMNSLKPEDTAVYYCAADSYPAYLGFVGFDYWGQGTQVTVSS”, for which the “polyreactivity (PSR sort gate)” value is “low polyreactivity”.

As to “QVQLVESGRGLVQAGGSLRLSCAASGRTFGYYAMGWYRKAPGKERELVAASTYSGARTYYADSVKGRFTISRDNAKNTVYLQRNSLKPEDTAVYYCAADTYYDDGYYYWCQGTQVTVSS”, the “polyreactivity (PSR sort gate)” value is on record as “high polyreactivity”.

As for “QVQLVESGGGLVQAGGSLRLSCAASGLIFPIYAMGWYRPAPGKERELVAVITWSGGSTYYADSVKGRFTISRDNAKNTVYLQMNSLKPEDTAVYYCSVEWAYPYWYTYYLEDYWGQGTQVTVSS”, the “polyreactivity (PSR sort gate)” value is on record as “low polyreactivity”.

For the sequence “QVQLVESGGGLVQAGGSLRLSCAASGRTFVHNDMGWYRQAPGKERQLVAAINVSDGSTYYADSVKGRFTISRDNAKNTVYFQMNSLKPEDTAVYYCAKASYIIFRFEYRSGYDYWGQGTQVTVSS”, the “polyreactivity (PSR sort gate)” value is given as “low polyreactivity”.

For “QVQLVESGGGLVQAGGSLRLSCAASGRIFYSYARGWYRQAPGKERELVAAIDESDGSTYYADSVKGRFTISRDNAKNTVYLQMNSLKPEDTAVYYCAADSLLVLFDYWGQGTQVTVSS”, the “polyreactivity (PSR sort gate)” value is reported as “low polyreactivity”.

For “QVQLVESGGGLVQAGGSLRLSCAASGRIFDCYAMGWYRQAPRKEREFVASISRRGGSTYYADSVKGRFTISRDNAKNTVYLQMNSLKPEDTAVYYCAADAFFRLDYYYWGQGTQVTVSS”, the “polyreactivity (PSR sort gate)” value is “high polyreactivity”.

As to “QVQIVESGGGLVQAGGSLRLSCAASGSIFASYTMGWYRQAPGKERELGATIRRTGSTYYADSVKGRFTISRDNAKNTVYLQMNSLKPDDTAVYYCAAGLRRKQGLTSGYEYGGQGTQVTVSS”, the “polyreactivity (PSR sort gate)” value was “high polyreactivity”.

As for “QVQLVESGGGLVQAGVSLRLSCAASVITFVYYTMGWYRQAPGKERELVAAISQSAVNTYYADSVKGRFTISRDNAKNTVYLQMNSLKPEVTAVYYCNARFRATFTSYGTDYRRRFDYWGQGTQVTVSS”, the “polyreactivity (PSR sort gate)” value is reported as “high polyreactivity”.

Regarding “QVQLVESGGGLVQAGGSLRLSCAASGFIIDRNAMGWYRQAAGKERELVAAITSRGGSTYYADSVKGRFTISRDNAKNTVYLQMNSLKPEDTAVYYCNAGRRVSTYGYWGPGTQVTVSS”, the “polyreactivity (PSR sort gate)” value is “high polyreactivity”.

As to “QVQLVESGGGLVQAGGSLRLSCAASGLIFYRYTMGWYRQAPGKERELVAAISWSGGRTYYADSVKGRFTISRDNAKNTVYLQMNSLKPEDTAVYYCNAVYYYTRASVPYDYWGQGTQVTVSS”, the “polyreactivity (PSR sort gate)” value is given as “high polyreactivity”.

As to “QVQLVESGGGLVQAGGSLRLSCAASGSTFDAYAMGWYRQAPGKERELVAPISWSGGGTTYADSVKGRFTISRDNAKNTVYLLMNSLKPEDTAVYYCNAKGSVRDFQDTLRPEGDYWGQGTQVTVSS”, the “polyreactivity (PSR sort gate)” value is reported as “low polyreactivity”.

“QVQLVESGGGLVQAGGSLRLSCAASGSTFYFNAMGWYRQAPGKEREFVAAITYSGGSTNYADSVKGRFTISRDNAKNTVYLQMNSLKPEDTAVYYCAARRYSYYYWYDYWGQGTQVTVSS”: the “polyreactivity (PSR sort gate)” value is recorded as “high polyreactivity”.

Regarding “EEELVESGGGLVQAGVSLRISCAASGSIFNYNAMGWYRQAPGKERELVAAISRGGTTNYADSVKGRFTISRDNANNTVYLQMNSLKPEDTAVYYCAAKAYDYYGPVYYWGQGSQVTVSS”, the “polyreactivity (PSR sort gate)” value is on record as “high polyreactivity”.
